{"source": "paper PMC3955222", "proteins": {"B1": {"name": "CODH IICh (Carboxydothermus hydrogenoformans Z-2901) (protein)", "chain": "AKQNLKSTDRAVQQMLDKAKREGIQTVWDRYEAMKPQCGFGETGLCCRHCLQGPCRINPFGDEPKVGICGATAEVIVARGLDRSIAAGAAGHSGHAKHLAHTLKKAVQGKAASYMIKDRTKLHSIAKRLGIPTEGQKDEDIALEVAKAALADFHEKDTPVLWVTTVLPPSRVKVLSAHGLIPAGIDHEIAEIMHRTSMGCDADAQNLLLGGLRCSLADLAGCYMGTDLADILFGTPAPVVTESNLGVLKADAVNVAVHGHNPVLSDIIVSVSKEMENEARAAGATGINVVGICCTGNEVLMRHGIPACTHSVSQEMAMITGALDAMILDYQCIQPSVATIAECTGTTVITTMEMSKITGATHVNFAEEAAVENAKQILRLAIDTFKRRKGKPVEIPNIKTKVVAGFSTEAIINALSKLNANDPLKPLIDNVVNGNIRGVCLFAGCNNVKVPQDQNFTTIARKLLKQNVLVVATGCGAGALMRHGFMDPANVDELCGDGLKAVLTAIGEANGLGGPLPPVLHMGSCVDNSRAVALVAALANRLGVDLDRLPVVASAAEAMHEKAVAIGTWAVTIGLPTHIGVLPPITGSLPVTQILTSSVKDITGGYFIVELDPETAADKLLAAINERRAGLGLPW"}}, "substrate": "O=C=O", "experiment": "protein film electrochemistry, KM for CO2 reduction at -560 mV", "type": "biochemical, Carboxydothermus hydrogenoformans", "details": "[Ni-4Fe-4S] C-cluster active site C-cluster"}
{"protein": "B1", "values": [{"measurement": "Km", "value": "8.0 ± 1.6", "unit": "mM"}]}
